Data reported in publication PMC6765112, “Specificity of MYB interactions relies on motifs in ordered and disordered contexts” (Nucleic Acids Research, 2019).
Numbering of substitutions follows the chain as printed. In names and notes the source's numbering stands. Ends that are not written are not given here.

B1: MYB29 DBD (residues M1-H126): DBD of MYB29 (residues M1-H126) (protein)
chain: MSRKPCCVGEGLKKGAWTAEEDKKLISYIHEHGEGGWRDIPQKAGLKRCGKSCRLRWANYLKPDIKRGEFSYEEEQIIIMLHASRGNKWSVIARHLPKRTDNEIKNYWNTHLKKLLIDKGIDPVTH
modifications: left off: NubG and FRB (from the vector pFRB), end not stated, kept
B2: MYB47: R2R3 MYB TF containing 165LLNKLA170 (protein)
chain: MGRTTWFDVDGMKKGEWTAEEDQKLGAYINEHGVCDWRSLPKRAGLQRCGKSCRLRWLNYLKPGIRRGKFTPQEEEEIIQLHAVLGNRWAAMAKKMQNRTDNDIKNHWNSCLKKRLSRKGIDPMTHEPIIKHLTVNTTNADCGNSSTTTSPSTTESSPSSGSSRLLNKLAAGISSRQHSLDRIKYILSNSIIESSDQAKEEEEKEEEEEERDSMMGQKIDGSEGEDIQIWGEEEVRRLMEIDAMDMYEMTSYDAVMYESSHILDHLF
modifications: left off: NubG and FRB (from the vector pFRB), end not stated, kept
notes: R2R3 MYB TF containing 165LLNKLA170
B3: MYB29 non-MYB region (G120-I336): non-MYB region of MYB29 (G120-I336) (protein)
chain: GIDPVTHKPLAYDSNPDEQSQSGSISPKSLPPSSSKNVPEITSSDETPKYDASLSSKKRCFKRSSSTSKLLNKVAARASSMGTILGASIEGTLISSTPLSSCLNDDFSETSQFQMEEFDPFYQSSEHIIDHMKEDISINNSEYDFSQFLEQFSNNEGEEADNTGGGYNQDLLMSDVSSTSVDEDEMMQNITGWSNYLLDHSDFNYDTSQDYDDKNFI
modifications: left off: NubG and FRB (from the vector pFRB), end not stated, kept
B4: MYB21: MYB TF from subgroup 19 (protein)
chain: MEKRGGGSSGGSGSSAEAEVRKGPWTMEEDLILINYIANHGDGVWNSLAKSAGLKRTGKSCRLRWLNYLRPDVRRGNITPEEQLIIMELHAKWGNRWSKIAKHLPGRTDNEIKNFWRTRIQKYIKQSDVTTTSSVGSHHSSEINDQAASTSSHNVFCTQDQAMETYSPTPTSYQHTNMEFNYGNYSAAAVTATVDYPVPMTVDDQTGENYWGMDDIWSSMHLLNGN
modifications: left off: NubG and FRB (from the vector pFRB), end not stated, kept
B5: L190A: mutated MYB29 (AAs 120-222); MIM sequence - S TS KL ANK VA ARA SS - (protein)
chain: GIDPVTHKPLAYDSNPDEQSQSGSISPKSLPPSSSKNVPEITSSDETPKYDASLSSKKRCFKRSSSTSKLANKVAARASSMGTILGASIEGTLISSTPLSSCL
modifications: left off: NubG and FRB (from the vector pFRB), end not stated, kept
B6: N191Q: mutated MYB29 (AAs 120-222); MIM sequence - S TS KL LQK VA ARA SS - (protein)
chain: B5 chain with A71L, N72Q
modifications: left off: NubG and FRB (from the vector pFRB), end not stated, kept
B7: N191L: mutated MYB29 (AAs 120-222); MIM sequence - S TS KL LLK VA ARA SS - (protein)
chain: B5 chain with A71L, N72L
modifications: left off: NubG and FRB (from the vector pFRB), end not stated, kept
B8: L190F: mutated MYB29 (AAs 120-222); MIM sequence - S TS KL FNK VA ARA SS - (protein)
chain: B5 chain with A71F
modifications: left off: NubG and FRB (from the vector pFRB), end not stated, kept
B9: MYB113: MYB TF from subgroup 6 (protein)
chain: MGESPKGLRKGTWTTEEDILLRQCIDKYGEGKWHRVPLRTGLNRCRKSCRLRWLNYLKPSIKRGKLCSDEVDLVLRLHKLLGNRWSLIAGRLPGRTANDVKNYWNTHLSKKHDERCCKTKMINKNITSHPTSSAQKIDVLKPRPRSFSDKNSCNDVNILPKVDVVPLHLGLNNNYVCESSITCNKDEQKDKLININLLDGDNMWWESLLEADVLGPEATETAKGVTLPLDFEQIWARFDEETLELN
modifications: left off: NubG and FRB (from the vector pFRB), end not stated, kept
B10: MYB29 mut: MYB29 with mutations to abolish the MIM: L190K, K192N and A194Y (protein)
chain: MSRKPCCVGEGLKKGAWTAEEDKKLISYIHEHGEGGWRDIPQKAGLKRCGKSCRLRWANYLKPDIKRGEFSYEEEQIIIMLHASRGNKWSVIARHLPKRTDNEIKNYWNTHLKKLLIDKGIDPVTHKPLAYDSNPDEQSQSGSISPKSLPPSSSKNVPEITSSDETPKYDASLSSKKRCFKRSSSTSKLKNNVYARASSMGTILGASIEGTLISSTPLSSCLNDDFSETSQFQMEEFDPFYQSSEHIIDHMKEDISINNSEYDFSQFLEQFSNNEGEEADNTGGGYNQDLLMSDVSSTSVDEDEMMQNITGWSNYLLDHSDFNYDTSQDYDDKNFI
modifications: left off: NubG and FRB (from the vector pFRB), end not stated, kept
notes: MYB29 with mutations to abolish the MIM: L190K, K192N and A194Y
B11: WT: MYB29 (AAs 120-222); MIM sequence - S TS KL LNK VA ARA SS - (protein)
chain: B10 chain with K190L, N192K, Y194A
modifications: left off: NubG and FRB (from the vector pFRB), end not stated, kept
B12: MYB51: MYB TF from subgroup 12, containing a MIM (protein)
chain: MVRTPCCKAELGLKKGAWTPEEDQKLLSYLNRHGEGGWRTLPEKAGLKRCGKSCRLRWANYLRPDIKRGEFTEDEERSIISLHALHGNKWSAIARGLPGRTDNEIKNYWNTHIKKRLIKKGIDPVTHKGITSGTDKSENLPEKQNVNLTTSDHDLDNDKAKKNNKNFGLSSASFLNKVANRFGKRINQSVLSEIIGSGGPLASTSHTTNTTTTSVSVDSESVKSTSSSFAPTSNLLCHGTVATTPVSSNFDVDGNVNLTCSSSTFSDSSVNNPLMYCDNFVGNNNVDDEDTIGFSTFLNDEDFMMLEESCVENTAFMKELTRFLHEDENDVVDVTPVYERQDLFDEIDNYFG
modifications: left off: NubG and FRB (from the vector pFRB), end not stated, kept
notes: MYB TF from subgroup 12, containing a MIM

Columns and labels:
MYC4 = assay: Split-ubiquitin assay, MYC4 as bait; format: cell-based, Arabidopsis thaliana; settings: yeast, SD-AHLW growth
Description: (§1) The rapamycin-compatible yeast strain NMY51 TOR1-1 Δfpr1 ([35]) was transformed according to DUALhunter™ kit instructions (Dualsystems biotech). Briefly, overnight 2×YPAD cultures were diluted to OD600 = 0.2, and incubated at 30°C, 150 RPM for 4–6 h in 2×YPAD, before harvesting the cells by centrifugation at 700 g for 5 min. The cells were washed with H2O, then 0.1 M LiOAc, before resuspending in 0.1 M LiOAc with 15% glycerol. The competent cells were then aliquoted and stored at −80°C until transformation. For double transformation with bait and prey plasmids, competent cells were thawed on ice, and mixed with transformation mix (240 μl 50% PEG-3350, 35 μl 1 M LiOAc and 25 μl 2 mg/ml ssDNA per transformation) and 200 ng of each plasmid, before being exposed to a 42°C heat shock in a water bath for 45 min. The cells were then chilled on ice for a few minutes, sedimented by centrifugation (3000 g, 1 min), resuspended in sterile H2O, plated on SD-LW plates and grown at 30°C for 2–3 days.
(§2) For drop tests, cells from three individual colonies of each bait/prey combination were grown overnight in liquid SD-LW media. Next day, culture densities were normalized to OD600 = 0.05, dilution series (OD600 = 0.05, OD600 = 0.005, OD600 = 0.0005 and OD600 = 0.00005) were spotted on square plates (SD-LW, SD-AHLW and SD-AHLW+Rapa) and grown for 2 days at 30°C before taking pictures.
(§3) To identify interaction sites mediating specific MYB–MYC complex formation, we selected two TFs from each family. These were MYB28 and MYB29 from MYB subgroup 12, and two of their partner bHLH TFs, MYC3 and MYC4. To define the region mediating the interactions we applied a chemically inducible dimerization split-ubiquitin system ([35]). […] This is used as an in-built positive control for correct expression and functionality of the prey fusion protein and thereby reduces the incidence of false negatives.

MYC3 = assay: Split-ubiquitin assay, MYC3 as bait; format: cell-based, Arabidopsis thaliana; settings: yeast, SD-AHLW growth
Description: as §1, §2, §3

Row | Molecule | interaction with MYC4 (in words) (MYC4) | interaction with MYC3 (in words) (MYC3)
1 | MYB29 (S175-L222): 47-residue fragment of MYB29 (S175-L222) (SKKRCFKRSSSTSKLLNKVAARASSMGTILGASIEGTLISSTPLSSCL; not fully specified; cysteine pairing not given here) | sufficient for the interaction | –
2 | MYB32: MYB TF from subgroup 4 | did not | did not
3 | B1 | neither sufficient, nor necessary for the interaction | –
4 | B2 | we could confirm those interactions | we could confirm those interactions
5 | B3 | mediated by the non-MYB region | –
6 | B4 | not able to reproduce the interaction | not able to reproduce the interaction
7 | B5 | abolished the interaction | abolished the interaction
8 | B6 | weakly interacting | –
9 | B7 | weakly interacting | –
10 | B8 | weakly interacting | –
11 | B9 | did not | did not
12 | B10 | abolished interaction with MYC3 and MYC4 | abolished interaction with MYC3 and MYC4
13 | B11 | interacted with both MYC3 and MYC4 | interacted with both MYC3 and MYC4
14 | B12 | interacted with both MYC3 and MYC4 | interacted with both MYC3 and MYC4
